# According to IntAct's records for PubMed 20937909:
# B1: Staphylococcal nuclease domain-containing protein 1 (Homo sapiens), Q7KZF4 (parent)
# chain: MASSAQSGGSSGGPAVPTVQRGIIKMVLSGCAIIVRGQPRGGPPPERQINLSNIRAGNLARRAAATQPDAKDTPDEPWAFPAREFLRKKLIGKEVCFTIENKTPQGREYGMIYLGKDTNGENIAESLVAEGLATRREGMRANNPEQNRLSECEEQAKAAKKGMWSEGNGSHTIRDLKYTIENPRHFVDSHHQKPVNAIIEHVRDGSVVRALLLPDYYLVTVMLSGIKCPTFRREADGSETPEPFAAEAKFFTESRLLQRDVQIILESCHNQNILGTILHPNGNITELLLKEGFARCVDWSIAVYTRGAEKLRAAERFAKERRLRIWRDYVAPTANLDQKDKQFVAKVMQVLNADAIVVKLNSGDYKTIHLSSIRPPRLEGENTQDKNKKLRPLYDIPYMFEAREFLRKKLIGKKVNVTVDYIRPASPATETVPAFSERTCATVTIGGINIAEALVSKGLATVIRYRQDDDQRSSHYDELLAAEARAIKNGKGLHSKKEVPIHRVADISGDTQKAKQFLPFLQRAGRSEAVVEYVFSGSRLKLYLPKETCLITFLLAGIECPRGARNLPGLVQEGEPFSEEATLFTKELVLQREVEVEVESMDKAGNFIGWLHIDGANLSVLLVEHALSKVHFTAERSSYYKSLLSAEEAAKQKKEKVWAHYEEQPVEEVMPVLEEKERSASYKPVFVTEITDDLHFYVQDVETGTQLEKLMENMRNDIASHPPVEGSYAPRRGEFCIAKFVDGEWYRARVEKVESPAKIHVFYIDYGNREVLPSTRLGTLSPAFSTRVLPAQATEYAFAFIQVPQDDDARTDAVDSVVRDIQNTQCLLNVEHLSAGCPHVTLQFADSKGDVGLGLVKEGLVMVEVRKEKQFQKVITEYLNAQESAKSARLNLWRYGDFRADDADEFGYSR
# Variants of: B1
# Details: with piwl1_human PIWIL1, Q96J94
# piwl1_human PIWIL1, Q96J94, sequence (Q96J94 whole entry): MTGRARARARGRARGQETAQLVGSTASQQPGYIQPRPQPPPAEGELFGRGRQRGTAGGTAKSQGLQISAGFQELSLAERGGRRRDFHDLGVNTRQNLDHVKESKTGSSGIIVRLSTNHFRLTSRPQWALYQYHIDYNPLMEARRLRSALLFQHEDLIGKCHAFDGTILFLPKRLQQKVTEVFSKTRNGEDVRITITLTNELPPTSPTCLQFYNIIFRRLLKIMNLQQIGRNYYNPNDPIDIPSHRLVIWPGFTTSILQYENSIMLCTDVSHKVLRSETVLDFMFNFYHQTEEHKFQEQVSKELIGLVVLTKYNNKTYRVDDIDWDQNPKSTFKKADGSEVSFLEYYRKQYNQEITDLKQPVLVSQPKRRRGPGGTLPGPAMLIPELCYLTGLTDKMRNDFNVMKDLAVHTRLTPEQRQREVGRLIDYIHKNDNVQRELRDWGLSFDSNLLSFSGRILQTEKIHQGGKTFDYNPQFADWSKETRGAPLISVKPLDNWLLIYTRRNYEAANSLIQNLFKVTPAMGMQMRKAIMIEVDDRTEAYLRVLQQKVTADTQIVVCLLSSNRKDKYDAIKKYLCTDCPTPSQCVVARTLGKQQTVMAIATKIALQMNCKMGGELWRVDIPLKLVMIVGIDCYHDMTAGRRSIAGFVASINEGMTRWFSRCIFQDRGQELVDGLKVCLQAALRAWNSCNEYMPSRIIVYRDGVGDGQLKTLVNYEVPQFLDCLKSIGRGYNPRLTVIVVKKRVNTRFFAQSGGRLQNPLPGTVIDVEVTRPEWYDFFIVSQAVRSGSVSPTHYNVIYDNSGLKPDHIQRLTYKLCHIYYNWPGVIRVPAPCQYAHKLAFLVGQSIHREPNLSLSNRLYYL
row,Variant,effect of a mutation on the interaction
1,Y763L,decreasing interaction
2,N768R,disrupting interaction
3,N768Q,decreasing interaction
4,F740L,decreasing interaction
5,Y766L,decreasing interaction
6,Y746L,decreasing interaction strength
